In PMC11490551, “The homeodomain regulates stable DNA binding of prostate cancer target ONECUT2”:
Changes are numbered by the printed parent chain.

T1: OC2R479 (human, UniProt O95948 330-485, R479A)
T1 sequence: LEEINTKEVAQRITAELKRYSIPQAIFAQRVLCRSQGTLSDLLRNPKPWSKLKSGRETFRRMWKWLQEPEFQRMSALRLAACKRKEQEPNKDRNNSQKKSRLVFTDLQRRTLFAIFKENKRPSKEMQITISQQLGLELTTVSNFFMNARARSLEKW

T2: OC2R480 (human, UniProt O95948 330-485, R480A)
T2 sequence: T1 sequence with A150R, R151A

T3: OC2SQ (human, UniProt O95948 330-485, S364A;Q365A)
T3 sequence: T1 sequence with S35A, Q36A, A150R

T4: OC2N (human, UniProt O95948 330-485, N476A)
T4 sequence: T1 sequence with N147A, A150R

T5: OC2 CUT domain;OC2 HOX domain (human;human, UniProt O95948;O95948 317-417;420-490, |)
T5 sequence 1: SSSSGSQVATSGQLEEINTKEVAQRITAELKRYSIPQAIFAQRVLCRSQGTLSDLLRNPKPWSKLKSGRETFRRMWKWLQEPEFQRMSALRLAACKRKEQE
T5 sequence 2: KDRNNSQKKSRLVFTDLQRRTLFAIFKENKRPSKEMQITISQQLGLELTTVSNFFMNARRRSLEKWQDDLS

T6: OC2 (CUT-HOX DNA binding region, wild type) (human, UniProt O95948 330-485)
T6 sequence: T1 sequence with A150R

T7: OC2 CUT domain (human, UniProt O95948 317-417)
T7 sequence: T5 sequence 1

T8: ONECUT2 (OC2) residues 317-417, containing the CUT domain (Homo sapiens (Human), UniProt O95948)
T8 chain: T5 sequence 1

B1: PEG10 promoter DNA (12mer duplex) (dsDNA)
DNA 1: AGATCGATTTGC
DNA 2: GCAAATCGATCT
B2: ONECUT2 (OC2) residues 420-490, containing the HOX domain (protein)
chain: T5 sequence 2

What was measured:
[1] = target: T1, OC2R479; experiment: ITC; ITC: 1X PBS pH 7.4, 0.005% Tween-20, 1 mM beta-ME, 25 C (also 12 and 30 C for heat capacity); BLI: 1X PBS, 0.5 mM TCEP, 0.005% Tween-20; conditions: protein: recombinant; tags: His6 removed by TEV
[2] = target: T2, OC2R480; experiment: as above; conditions: protein: recombinant; tags: His6 removed by TEV
[3] = target: T3, OC2SQ; experiment: as above; conditions: protein: recombinant; tags: His6 removed by TEV
[4] = target: T4, OC2N; experiment: as above; conditions: protein: recombinant; tags: His6 removed by TEV
[5] = target: T5, OC2 CUT domain;OC2 HOX domain; experiment: ITC; CUT and HOX as separate polypeptides; ITC: 1X PBS pH 7.4, 0.005% Tween-20, 1 mM beta-ME, 25 C (also 12 and 30 C for heat capacity); BLI: 1X PBS, 0.5 mM TCEP, 0.005% Tween-20; conditions: protein: recombinant;recombinant; copies: 1;1
[6] = target: T6, OC2 (CUT-HOX DNA binding region, wild …); experiment: ITC; 25 C; ITC: 1X PBS pH 7.4, 0.005% Tween-20, 1 mM beta-ME, 25 C (also 12 and 30 C for heat capacity); BLI: 1X PBS, 0.5 mM TCEP, 0.005% Tween-20; conditions: protein: recombinant; tags: His6 removed by TEV
[7] = target: T7, OC2 CUT domain; experiment: as above; conditions: protein: recombinant; tags: His6-MBP, removed by TEV (same protocol as OC2)
[8] = target: T8, ONECUT2 (OC2) residues 317-417, …; experiment: ITC (implied; data not shown); absence of DNA

| binding result [8] | Binder | Kd [1] | Kd [2] | Kd [3] | Kd [4] | Kd [5] | Kd [6] | Kd [7] |
| --- | --- | --- | --- | --- | --- | --- | --- | --- |
| – | B1 | 6 nM | 47 nM | 51 ± 9 nM | 70 ± 11 nM | 1380 ± 279 nM | 7 ± 2 nM | 2030 ± 262 nM |
| no binding | B2 | – | – | – | – | – | – | – |
